± gives the standard error. For part of these data: Variants at the floor of the assay were thinned out.
B1: glmS ribozyme (parent)
chain: AUAAAAGCGCCAGAACUACAGAAAUGUAGUUGACGAGGAGGAGGUUUAUCGAAUUUUCGGCGGAUGCCUCCAAA

Tests used:
Conditions in all cases: with glucosamine-6-phosphate
glucosamine-6-phosphate [1] = variants of: B1; experiment: kcat; higher = faster cleavage; RNA array
Outline: (§1)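 Tiles of sequenced MiSeq chips were imaged over ~14 h at 37 °C. On them, barcoded ribozyme variants had been transcribed in situ by E. coli RNA polymerase and were tracked via a hybridised Cy3 probe while glucosamine-6-phosphate (40 μM to 10 mM) in HEPES/KCl/Mg(OAc)2 buffer flowed in. Per-tile medians, normalised to baseline and to non-cleaving reference variants, were fit to one- or two-exponential decays for kobs, and weighted Michaelis–Menten fits gave kcat and KM.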

glucosamine-6-phosphate [2] = variants of: B1; experiment: self-cleavage kobs at 640 uM GlcN6P; higher = faster cleavage; RNA array
Outline: as §1

glucosamine-6-phosphate [3] = variants of: B1; experiment: self-cleavage kobs at 2500 uM GlcN6P; higher = faster cleavage; RNA array
Outline: as §1

glucosamine-6-phosphate [4] = variants of: B1; experiment: self-cleavage kobs at 10000 uM GlcN6P; higher = faster cleavage; RNA array
Outline: as §1

glucosamine-6-phosphate [5] = variants of: B1; experiment: self-cleavage kobs at 40 uM GlcN6P; higher = faster cleavage; RNA array
Outline: as §1

glucosamine-6-phosphate [6] = variants of: B1; experiment: self-cleavage kobs at 160 uM GlcN6P; higher = faster cleavage; RNA array
Outline: as §1

glucosamine-6-phosphate [7] = variants of: B1; experiment: KM; higher = weaker cofactor use; RNA array
Outline: as §1

Variant | kcat (glucosamine-6-phosphate [1]) [s⁻¹] | self-cleavage kobs at 640 uM GlcN6P (glucosamine-6-phosphate [2]) [s⁻¹] | self-cleavage kobs at 2500 uM GlcN6P (glucosamine-6-phosphate [3]) [s⁻¹] | self-cleavage kobs at 10000 uM GlcN6P (glucosamine-6-phosphate [4]) [s⁻¹] | self-cleavage kobs at 40 uM GlcN6P (glucosamine-6-phosphate [5]) [s⁻¹] | self-cleavage kobs at 160 uM GlcN6P (glucosamine-6-phosphate [6]) [s⁻¹] | KM (glucosamine-6-phosphate [7]) [µM]
U31A C67A C68U | 6.87e-05 ± 1.5e-05 | 0.000122 ± 3.5e-05 | 7.63e-05 ± 1.4e-05 | 5.53e-05 ± 1.3e-05 | – | – | –
U31C C71U | 0.00657 ± 0.0031 | 0.00111 ± 0.00013 | 0.00536 ± 0.00083 | 0.00504 ± 0.00056 | 0.000177 ± 1.7e-05 | 0.000289 ± 3.6e-05 | –
G29U G32C G43U A53U | 1.74e-05 ± 3.6e-06 | – | – | – | < 1e-05 | – | 9610 ± 3900
U31C A42U | 1.58e-05 ± 4.1e-06 | – | – | – | < 1e-05 | < 1e-05 | –
U30C U55C | 0.000295 ± 3.2e-05 | 8.83e-05 ± 8.8e-06 | 0.000167 ± 2.4e-05 | 0.000281 ± 3.9e-05 | – | 3.54e-05 ± 9.7e-06 | 1490 ± 290
U30C C67A | 8.57e-05 ± 7.5e-06 | 7.21e-05 ± 1.3e-05 | 6.84e-05 ± 1.1e-05 | 8.63e-05 ± 8.9e-06 | – | – | –
U30G U54G | 0.00551 ± 0.002 | 0.00144 ± 0.00032 | 0.00254 ± 0.00053 | 0.00743 ± 0.0011 | 0.000203 ± 4.6e-05 | 0.000615 ± 0.0001 | –
G29U | 0.00859 ± 0.00066 | 0.00232 ± 8.4e-05 | 0.01 ± 0.0028 | 0.00757 ± 0.00024 | 0.000218 ± 3.7e-06 | 0.000677 ± 5.2e-05 | 1570 ± 140
G29C U30A | 0.000322 ± 1.4e-05 | 5.97e-05 ± 1.4e-05 | 0.000141 ± 3.8e-05 | 0.000253 ± 4.6e-05 | – | – | 2880 ± 230
U30C U31G | 0.00836 ± 0.0018 | 0.00249 ± 0.00044 | 0.00353 ± 0.0008 | 0.00701 ± 0.00093 | 0.000147 ± 1.9e-05 | 0.000404 ± 0.0001 | 2370 ± 690
U31C C70A | 6.32e-05 ± 4.7e-06 | 5.83e-05 ± 9.7e-06 | 5.7e-05 ± 1.6e-05 | 5.89e-05 ± 1.2e-05 | – | 2.96e-05 ± 1.2e-05 | 135 ± 56
U30A U47C C70G | 4.3e-05 ± 6.7e-06 | – | 3.41e-05 ± 1.5e-05 | 3.72e-05 ± 1.7e-05 | – | – | –
G29U A48C | 1.88e-05 ± 3.6e-07 | – | – | 1.85e-05 ± 7.6e-06 | < 1e-05 | < 1e-05 | 138 ± 42
U31C A33C | < 1e-05 | – | – | – | < 1e-05 | < 1e-05 | 5010 ± 1800
U30A C58G | 5.56e-05 ± 1.8e-05 | – | 8.28e-05 ± 2.5e-05 | 4.77e-05 ± 1.1e-05 | – | – | –
U30G U55G | 0.00756 ± 0.0019 | 0.00222 ± 0.00047 | 0.00378 ± 0.00086 | 0.00866 ± 0.0016 | 0.00025 ± 5.1e-05 | – | 1440 ± 590

Variant | kcat (glucosamine-6-phosphate [1]) [s⁻¹] | self-cleavage kobs at 640 uM GlcN6P (glucosamine-6-phosphate [2]) [s⁻¹] | self-cleavage kobs at 2500 uM GlcN6P (glucosamine-6-phosphate [3]) [s⁻¹] | self-cleavage kobs at 10000 uM GlcN6P (glucosamine-6-phosphate [4]) [s⁻¹] | self-cleavage kobs at 40 uM GlcN6P (glucosamine-6-phosphate [5]) [s⁻¹] | self-cleavage kobs at 160 uM GlcN6P (glucosamine-6-phosphate [6]) [s⁻¹] | KM (glucosamine-6-phosphate [7]) [µM]
U30G U55C | 0.00519 ± 0.00037 | 0.00192 ± 0.00068 | 0.00363 ± 0.00086 | 0.00502 ± 0.00092 | 0.000236 ± 5e-05 | – | 883 ± 120
U31C A52U U65A | < 1e-05 | – | – | – | – | – | –
G29C G41C | 1.23e-05 ± 4.8e-07 | < 1e-05 | – | – | – | < 1e-05 | 2750 ± 290
G29U U57C | 6.81e-05 ± 7.7e-06 | – | 2.73e-05 ± 7.7e-06 | 5.13e-05 ± 6.5e-06 | – | – | 3360 ± 1100
U31A U54G | 0.0208 ± 0.0046 | 0.00291 ± 0.00094 | 0.016 ± 0.0066 | 0.0152 ± 0.0024 | 0.00027 ± 3.9e-05 | 0.00075 ± 0.00015 | 3520 ± 990
U30C U65G | 7.96e-05 ± 3.5e-06 | 3.09e-05 ± 1e-05 | 4.99e-05 ± 1.1e-05 | 7.23e-05 ± 6.6e-06 | – | – | 1130 ± 230
U30A C50A A52G | < 1e-05 | < 1e-05 | – | < 1e-05 | – | – | 39.4 ± 20
G29U U31C | 0.000449 ± 0.00016 | 9.18e-05 ± 8.9e-06 | 0.00015 ± 1.8e-05 | 0.000407 ± 3.7e-05 | – | 4.01e-05 ± 1.3e-05 | –
G29U G38U U69G | 7.45e-05 ± 3.4e-05 | 0.00014 ± 6.1e-05 | 0.000102 ± 4.6e-05 | – | – | 9.11e-05 ± 1.8e-05 | –
G29U U65A | 0.000516 ± 4.5e-05 | 0.000114 ± 1.9e-05 | 0.000323 ± 5.9e-05 | 0.000411 ± 6e-05 | – | 3.8e-05 ± 1.4e-05 | 2110 ± 340
G29U U65G | 0.00182 ± 0.0005 | 0.000188 ± 3e-05 | 0.000739 ± 0.0001 | 0.00124 ± 0.00017 | 3.41e-05 ± 1.4e-05 | 8.11e-05 ± 1.6e-05 | 4450 ± 1800
G29U C50A G60U | 1e-05 ± 4.9e-06 | – | < 1e-05 | – | – | – | –
U30C A53C | 3.34e-05 ± 6.8e-06 | – | 3.87e-05 ± 9.7e-06 | 2.78e-05 ± 9e-06 | – | < 1e-05 | –
U30G A48U | 7.56e-05 ± 6e-06 | – | 5.84e-05 ± 1.2e-05 | 6.65e-05 ± 1.1e-05 | < 1e-05 | < 1e-05 | 1040 ± 340
U31A U47C | 0.0025 ± 0.0005 | 0.000511 ± 0.00012 | 0.00117 ± 0.00017 | 0.00174 ± 0.00034 | 3.34e-05 ± 1.3e-05 | 9.34e-05 ± 2.4e-05 | 3290 ± 980

Reference: the supplement of paper PMC7125110
